This is an account of results in PMC12500691.

Assay [1] deals with SARS-CoV-2 Spike_(Strep) (SARS-CoV-2 (Wuhan variant)) (UniProt P0DTC2). In words: negative stain electron microscopy.
The target in assay [2] is SARS-CoV-2 SpikeHis (SARS-CoV-2 (Wuhan variant)) (UniProt P0DTC2). In words: SPR. In general terms: Surface plasmon resonance follows binding to a sensor surface in real time, without labels.
Assay [3] has as its target SARS-CoV-2 extended S1 subunit (SARS-CoV-2 (Wuhan variant)) (UniProt P0DTC2). In words: SPR.
Assay [4] has as its target SARS-CoV-2 Spike_(Strep) (SARS-CoV-2 (Wuhan variant)) (UniProt P0DTC2). In words: SPR.

In general, stoichiometry N refers to the number of molecules, sites or subunits per partner or assembly. A word on the Kd: it is a measure of binding affinity in units of concentration. A high value points to weaker binding. What is called IC50 is the point on the concentration scale where inhibition reaches its midpoint. Read a low IC50 as higher potency.

“And” between values parts separate entries of the source, which are not always exact repeats. Identical values can stand only once.

human angiotensin converting enzyme 2, sequence (Q9BYF1 20-611): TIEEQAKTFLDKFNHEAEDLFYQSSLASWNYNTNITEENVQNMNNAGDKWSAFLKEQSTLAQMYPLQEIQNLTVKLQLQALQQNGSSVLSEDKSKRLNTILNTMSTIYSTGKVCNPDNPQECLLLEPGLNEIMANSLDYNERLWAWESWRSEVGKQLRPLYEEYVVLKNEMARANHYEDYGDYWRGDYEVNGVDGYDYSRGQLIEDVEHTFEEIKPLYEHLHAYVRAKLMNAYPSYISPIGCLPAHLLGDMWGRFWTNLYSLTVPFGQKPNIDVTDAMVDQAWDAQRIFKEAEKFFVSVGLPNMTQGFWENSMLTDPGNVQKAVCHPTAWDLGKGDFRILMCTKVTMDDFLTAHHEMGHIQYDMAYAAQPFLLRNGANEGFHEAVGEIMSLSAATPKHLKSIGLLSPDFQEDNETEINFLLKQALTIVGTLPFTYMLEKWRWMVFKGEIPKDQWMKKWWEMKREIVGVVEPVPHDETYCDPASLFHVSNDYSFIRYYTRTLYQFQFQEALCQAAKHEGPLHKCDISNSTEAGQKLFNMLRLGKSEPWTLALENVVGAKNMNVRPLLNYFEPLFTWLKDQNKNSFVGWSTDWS

On to gold-labeled LL-37 (peptide), for which the stoichiometry N in assay [1] was 4 and 7.

LL-37 (peptide) yielded a Kd in assay [2] of 410 nM. In assay [3], this substance yielded an IC50 of 160 nM and a Kd of 200 nM. In assay [4], this substance came in with an IC50 of 670 nM, a Kd of 410 nM and a stoichiometry N of 6.

On to “human angiotensin converting enzyme 2 (from UniProt Q9BYF1-1 20-611) (receptor)”, for which the Kd in assay [3] turned out to be 610 nM. This lies in the sub-micromolar range.
